# B1: Circadian clock oscillator protein KaiA (Synechococcus elongatus (strain PCC 7942)), Q79PF6 (parent)
# chain: MLSQIAICIWVESTAILQDCQRALSADRYQLQVCESGEMLLEYAQTHRDQIDCLILVAANPSFRAVVQQLCFEGVVVPAIVVGDRDSEDPDEPAKEQLYHSAELHLGIHQLEQLPYQVDAALAEFLRLAPVETMADHIMLMGANHDPELSSQQRDLAQRLQERLGYLGVYYKRDPDRFLRNLPAYESQKLHQAMQTSYREIVLSYFSPNSNLNQSIDNFVNMAFFADVPVTKVVEIHMELMDEFAKKLRVEGRSEDILLDYRLTLIDVIAHLCEMYRRSIPRET
# partner: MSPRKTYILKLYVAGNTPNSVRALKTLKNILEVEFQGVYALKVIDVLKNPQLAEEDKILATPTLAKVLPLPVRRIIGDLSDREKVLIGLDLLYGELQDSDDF
# Variants of: B1
# Settings: with kaib_syne7 kaiB
row,effect of a mutation on the interaction,Variant
1,increasing interaction,MLSQIAICIWVESTAILQDCQRALSADRYQLQVCESGEMLLEYAQTHRDQIDCLILVAANPSFRAVVQQLCFEGVVVPAIVVGDRDSEDPDEPAKEQLYHSAKLHLGIHQLEQLPYQVDAALAEFLRLAPVETMADHIMLMGANHDPELSSQQRDLAQRLQERLGYLGVYYKRDPDRFLRNLPAYESQKLHQAMQTSYREIVLSYFSPNSNLNQSIDNFVNMAFFADVPVTKVVEIHMELMDEFAKKLRVEGRSEDILLDYRLTLIDVIAHLCEMYRRSIPRET [E103K]

# From IntAct's records for PubMed 10064581
